Experimental data as given in patent publication US20230183314A1 (ARO BIOTHERAPEUTICS, published 2023).
Where two headings read alike, the source gives them in different places.

T1: cynomolgus monkey PSMA-Fc fusion (human; cynomolgus monkey, PSMA is a glycosylated homodimer. Only one subunit is given.)
T1 construct: also called cyno PSMA Fc; cynoPSMA-Fc; not shown: Human IgG1 Fc domain, which sits N-terminal of the PSMA ECD, and the junction with the Prescission protease site
T1 chain: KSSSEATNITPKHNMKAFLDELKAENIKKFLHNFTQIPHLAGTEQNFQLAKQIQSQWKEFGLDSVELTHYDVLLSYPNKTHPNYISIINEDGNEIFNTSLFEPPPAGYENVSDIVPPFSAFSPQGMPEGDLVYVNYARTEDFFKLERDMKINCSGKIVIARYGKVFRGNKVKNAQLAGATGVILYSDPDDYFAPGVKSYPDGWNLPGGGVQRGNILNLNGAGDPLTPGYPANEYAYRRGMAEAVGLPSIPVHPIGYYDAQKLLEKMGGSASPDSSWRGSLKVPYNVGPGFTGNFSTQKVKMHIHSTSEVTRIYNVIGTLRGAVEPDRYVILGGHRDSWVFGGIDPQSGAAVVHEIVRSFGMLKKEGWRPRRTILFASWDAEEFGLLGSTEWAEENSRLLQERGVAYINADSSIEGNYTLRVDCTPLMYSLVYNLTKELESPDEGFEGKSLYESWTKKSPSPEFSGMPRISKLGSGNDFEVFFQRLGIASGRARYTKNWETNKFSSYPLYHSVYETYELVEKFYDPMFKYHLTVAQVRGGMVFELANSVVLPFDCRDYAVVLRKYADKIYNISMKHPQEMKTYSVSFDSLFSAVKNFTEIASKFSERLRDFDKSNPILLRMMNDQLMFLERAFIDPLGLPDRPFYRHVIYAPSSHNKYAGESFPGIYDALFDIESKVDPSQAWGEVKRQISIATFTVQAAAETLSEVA


What was measured:
[1] = molecular target: T2, human prostate specific membrane antigen (PSMA) (human, UniProt Q04609 1-750); test: flow cytometry, direct binding to LNCaP cells (relative cell binding, MFI, against concentration in nM); the table under the plot labels the half-maximal concentration IC50; unit taken from the concentration axis
T2 construct: Endogenous PSMA on the human prostate cancer cell lines LNCaP, 22Rv1, MDA-PCA-2B and VCAP; also called human PSMA
T2 sequence (Q04609 whole entry): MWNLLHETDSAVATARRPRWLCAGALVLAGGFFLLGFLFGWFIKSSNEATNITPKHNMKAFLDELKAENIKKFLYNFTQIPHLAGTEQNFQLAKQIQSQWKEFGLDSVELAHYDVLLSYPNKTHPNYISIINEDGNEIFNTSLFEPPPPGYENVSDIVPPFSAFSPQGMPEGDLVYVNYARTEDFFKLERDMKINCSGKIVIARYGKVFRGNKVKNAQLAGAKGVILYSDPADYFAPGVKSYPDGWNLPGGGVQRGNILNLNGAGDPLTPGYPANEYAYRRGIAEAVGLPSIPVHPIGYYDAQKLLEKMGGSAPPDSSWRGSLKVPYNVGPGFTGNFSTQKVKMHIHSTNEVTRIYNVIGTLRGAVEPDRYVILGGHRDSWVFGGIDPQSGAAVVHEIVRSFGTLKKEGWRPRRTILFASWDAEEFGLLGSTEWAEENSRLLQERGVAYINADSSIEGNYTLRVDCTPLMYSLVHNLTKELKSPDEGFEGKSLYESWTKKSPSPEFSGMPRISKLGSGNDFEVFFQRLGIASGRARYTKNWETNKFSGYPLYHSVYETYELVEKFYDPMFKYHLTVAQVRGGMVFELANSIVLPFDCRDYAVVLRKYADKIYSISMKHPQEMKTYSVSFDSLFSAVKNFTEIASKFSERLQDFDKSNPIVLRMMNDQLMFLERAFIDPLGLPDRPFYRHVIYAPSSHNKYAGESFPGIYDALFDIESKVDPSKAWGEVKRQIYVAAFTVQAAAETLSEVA

[2] = molecular target: T2, human prostate specific membrane …; test: binding to LNCaP cells (flow cytometry, FIG. 8C)
[3] = molecular target: T2, human prostate specific membrane …; test: flow cytometry, direct binding to LNCaP cells (relative cell binding, MFI, against concentration in nM); the table under the plot labels the half-maximal concentration IC50; unit taken from the concentration axis; remark: listed apart in the source
[4] = molecular target: T2, human prostate specific membrane …; test: as above; remark: listed apart in the source
[5] = molecular target: T1, cynomolgus monkey PSMA-Fc fusion; test: binding to cynoPSMA-Fc; method not described
[6] = molecular target: T2, human prostate specific membrane …; test: binding to LNCaP cells (flow cytometry, FIG. 9C)
[7] = molecular target: T1, cynomolgus monkey PSMA-Fc fusion; test: binding to cynoPSMA-Fc; method not described

IC50 [1] [nM]	Kd [2] [nM]	IC50 [3] [nM]	IC50 [4] [nM]	Kd [5] [nM]	Kd [6] [nM]	Kd [7] [nM]	Binder
0.598	~0.003	0.598	0.598	692			P233FR9_H10 PSMA binding FN3 domain (designed binder, His-tagged, expressed in E. coli; also called H10 centyrin; not shown: C-terminal poly-histidine tag) LPAPKNLVVSRVTEDSARLSWTAPDAAFDSFAIGYWEWDDDGEAIVLTVPGSERSYDLTGLKPGTEYPVYIAGVKGGQWSFPLSAIFTT
0.608							P233FR9_H10_v18 (designed binder, Optimized Centyrin; not shown: C-terminal poly-histidine tag) LPAPKNLVVSRVTEDSARLSWTAPDAAFDSFAIAYWEWDDDGEAIVLTVPGSCRSYDLTGLKPGTEYPVYIAGVKGGQWSFPLSAIFTT
			1.32		~0.025	0.1	P258AR6P1071_D02 (designed binder, not shown: C-terminal poly-histidine tag) LPAPKNLVVSRVTEDSARLSWAIDEQRDWFESFLIQYQESEKVGEAIVLTVPGSERSYDLTGLKPGTEYTVSIYGVYHVYRSNPLSAIFTT
